{
  "source": "patent US20230265123A1",
  "about": "“PEPTIDES AND FORMULATIONS FOR CANCER TREATMENT” (Peptinovo Biopharma, Inc., priority 2020, published 2023)",
  "target": "T1, human SR-BI (Homo sapiens, UniProt Q8WTV0)",
  "T1 construct": "expressed in transfected cells; host or cells: BHK(SR-BI) cells obtained from the NIH, GeneSwitch System (Invitrogen), induced with 10 nM mifepristone",
  "T1 sequence (Q8WTV0 1-509 isoform Q8WTV0-2)": "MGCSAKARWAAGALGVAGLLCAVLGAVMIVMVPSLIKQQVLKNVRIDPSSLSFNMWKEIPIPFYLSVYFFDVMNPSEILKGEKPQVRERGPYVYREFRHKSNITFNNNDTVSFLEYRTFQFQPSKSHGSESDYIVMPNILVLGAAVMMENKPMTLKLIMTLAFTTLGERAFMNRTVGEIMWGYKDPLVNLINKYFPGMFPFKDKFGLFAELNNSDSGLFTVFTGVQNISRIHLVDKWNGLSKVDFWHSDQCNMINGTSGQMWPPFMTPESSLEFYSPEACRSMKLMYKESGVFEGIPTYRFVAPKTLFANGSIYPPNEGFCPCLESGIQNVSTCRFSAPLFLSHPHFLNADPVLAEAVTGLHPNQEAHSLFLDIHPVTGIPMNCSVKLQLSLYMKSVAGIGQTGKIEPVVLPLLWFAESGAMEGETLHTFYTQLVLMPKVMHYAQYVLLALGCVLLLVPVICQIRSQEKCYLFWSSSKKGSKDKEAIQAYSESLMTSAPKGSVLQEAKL",
  "assay": "DiI uptake from DiI-labeled PALM by BHK(SR-BI) cells, uninduced or mifepristone-induced (SR-BI selectivity)",
  "format": "cell-based",
  "settings": "for Induced Uptake: BHK(SR-BI) cells induced with 10 nM mifepristone; for Induced Uptake / Basal Uptake: DiI-labeled PALM 32 μg peptide/ml or DiI-labeled HDL 19 μg protein/ml, 4 hours, ± SEM (n = 4); for SR-BI Dependent Uptake: Increase over basal uptake; for Basal Uptake: uninduced BHK(SR-BI) cells",
  "experimental": "The procedure essentially followed that described in Example 5. A 40 μl aliquot of 10 mM or peptide was combined with 56 μl of 20 mM POPC, 24 μl 20 mM SM(egg) and 16 μl 2.5 mM DiI in a small glass vial. The peptide and lipid stock solutions were prepared in 80% TBA/20% water. The DiI stock was prepared in 92% TBA/8% water. The solution was lyophilized, and the resultant cake was rehydrated by addition of 0.2 ml of Dulbeco's phosphate buffered saline. The solution was briefly swirled, water bath sonicated (for approx. 15 sec.) and placed in a 50° C. heating block for 20 minutes.\nSR-BI interaction studies are done with BHK(SR-BI) cells obtained from the NIH. The cells were stably transfected with an inducible human SR-BI gene by means of the GeneSwitch™ System (Invitrogen). The cells were plated (96-well plate) (8000 cells/well) in growth medium (Dulbeco's modified Eagle medium containing 10% fetal bovine serum) containing 200 ug/ml each of zeocin and hygromycin. After 24 hours incubation, the growth medium was removed and replaced with 0.2% bovine serum albumin in Dulbeco's modified Eagle medium. The medium of cells to be induced for SR-BI expression also contained 10 nM mifepristone, added from a DMSO stock solution. DMSO alone was added to the medium of uninduced cells. The induction medium was removed after 24 hours incubation and replaced with medium containing DiI-labeled PALM (32 μg peptide/ml) or DiI-labeled HDL (19 μg protein/ml) (Kalen Biomedical, Montgomery Village, Md.). The test media were prepared by diluting an aliquot of Di-I-labeled PALM (Example 6) or the DiI-labeled HDL in 0.2% bovine serum albumin in Dulbeco's modified Eagle medium. The solutions were passed through 0.2 μm pore size, polyethersulfone, sterilization filters before use. The cells were incubated in test media for 4 hours. Next, the cells were washed 3 times with 0.1% albumin in Dulbeco's phosphate buffered saline (with calcium and magnesium). The last wash was replaced with 200 ul/well of t-butanol/water (95%/5%). The covered plate was left to stand at room temperature for 30 min with occasional shaking. The fluorescence in each well was detected at 520 nm excitation and 580 nm emission with a 550 nm cutoff filter on a […] Gemini fluorescence plate reader, the results are shown in Table 6 and FIG. 7.",
  "note": "Square brackets hold non-standard residues; d marks the D form. Ends that are not written are not given here. Aib = CC(C)(N)C(=O)O",
  "data": [
    {"substance": "DVFQKL{Aib}ELFKELLEKWKQV (DVFQKL[Aib]ELFKELLEKWKQV) [SEQ ID NO: 8, amphiphilic peptide used to form PALM]", "values": [
      {"measurement": "Induced Uptake", "value": "20 ± 9 (DiI in cells)/(Total DiI added) × 10^−3"},
      {"measurement": "SR-BI Dependent Uptake", "value": 14, "unit": "%"},
      {"measurement": "Basal Uptake", "value": "17 ± 8 (DiI in cells)/(Total DiI added) × 10^−3"}
    ]},
    {"substance": "DVFQKL{Aib}ELFNQL{Aib}EKFKQV (DVFQKL[Aib]ELFNQL[Aib]EKFKQV) [SEQ ID NO: 6, amphiphilic peptide used to form PALM]", "values": [
      {"measurement": "Induced Uptake", "value": "27 ± 3 (DiI in cells)/(Total DiI added) × 10^−3"},
      {"measurement": "SR-BI Dependent Uptake", "value": 82, "unit": "%"},
      {"measurement": "Basal Uptake", "value": "15 ± 1 (DiI in cells)/(Total DiI added) × 10^−3"}
    ]},
    {"substance": "DVFQKL{Aib}ELFQQL{Aib}EKWKQV (DVFQKL[Aib]ELFQQL[Aib]EKWKQV) [SEQ ID NO: 9, amphiphilic peptide used to form PALM]", "values": [
      {"measurement": "Induced Uptake", "value": "11 ± 2 (DiI in cells)/(Total DiI added) × 10^−3"},
      {"measurement": "SR-BI Dependent Uptake", "value": 72, "unit": "%"},
      {"measurement": "Basal Uptake", "value": "6 ± 1 (DiI in cells)/(Total DiI added) × 10^−3"}
    ]},
    {"substance": "DV{Aib}QKLFELFNQLLEKWKQV (DV[Aib]QKLFELFNQLLEKWKQV) [SEQ ID NO: 3, amphiphilic peptide used to form PALM]", "values": [
      {"measurement": "Induced Uptake", "value": "11 ± 2 (DiI in cells)/(Total DiI added) × 10^−3"},
      {"measurement": "SR-BI Dependent Uptake", "value": 79, "unit": "%"},
      {"measurement": "Basal Uptake", "value": "6 ± 1 (DiI in cells)/(Total DiI added) × 10^−3"}
    ]},
    {"substance": "DVFQKLVELFNQLLEKWKQV [SEQ ID NO: 2, amphiphilic peptide used to form PALM]", "values": [
      {"measurement": "Induced Uptake", "value": "12 ± 2 (DiI in cells)/(Total DiI added) × 10^−3"},
      {"measurement": "SR-BI Dependent Uptake", "value": 35, "unit": "%"},
      {"measurement": "Basal Uptake", "value": "9 ± 2 (DiI in cells)/(Total DiI added) × 10^−3"}
    ]},
    {"substance": "DVFQKL{Aib}ELFNQLLEKWKQV (DVFQKL[Aib]ELFNQLLEKWKQV) [SEQ ID NO: 1, amphiphilic alpha-helical peptide used to form PALM]", "values": [
      {"measurement": "Induced Uptake", "value": "10 ± 1 (DiI in cells)/(Total DiI added) × 10^−3"},
      {"measurement": "SR-BI Dependent Uptake", "value": 53, "unit": "%"},
      {"measurement": "Basal Uptake", "value": "6 ± 1 (DiI in cells)/(Total DiI added) × 10^−3"}
    ]},
    {"substance": "DVFQKL{Aib}ELFNQL{Aib}EKWKQV (DVFQKL[Aib]ELFNQL[Aib]EKWKQV) [SEQ ID NO: 5, amphiphilic peptide used to form PALM]", "values": [
      {"measurement": "Induced Uptake", "value": "16 ± 2 (DiI in cells)/(Total DiI added) × 10^−3"},
      {"measurement": "SR-BI Dependent Uptake", "value": 104, "unit": "%"},
      {"measurement": "Basal Uptake", "value": "8 ± 1 (DiI in cells)/(Total DiI added) × 10^−3"}
    ]},
    {"substance": "PVLDLFRELLNELLEALKQKLK [SEQ ID NO: 11, reference compound]", "values": [
      {"measurement": "Induced Uptake", "value": "5 ± 1 (DiI in cells)/(Total DiI added) × 10^−3"},
      {"measurement": "SR-BI Dependent Uptake", "value": 55, "unit": "%"},
      {"measurement": "Basal Uptake", "value": "3 ± 1 (DiI in cells)/(Total DiI added) × 10^−3"}
    ]},
    {"substance": "DVFQKL{Aib}ELFQNL{Aib}EKWKQV (DVFQKL[Aib]ELFQNL[Aib]EKWKQV) [SEQ ID NO: 10, amphiphilic peptide used to form PALM]", "values": [
      {"measurement": "Induced Uptake", "value": "16 ± 2 (DiI in cells)/(Total DiI added) × 10^−3"},
      {"measurement": "SR-BI Dependent Uptake", "value": 78, "unit": "%"},
      {"measurement": "Basal Uptake", "value": "9 ± 1 (DiI in cells)/(Total DiI added) × 10^−3"}
    ]},
    {"substance": "D{Aib}FQKL{Aib}ELFNQL{Aib}EKWKQV (D[Aib]FQKL[Aib]ELFNQL[Aib]EKWKQV) [SEQ ID NO: 7, amphiphilic peptide used to form PALM]", "values": [
      {"measurement": "Induced Uptake", "value": "18 ± 2 (DiI in cells)/(Total DiI added) × 10^−3"},
      {"measurement": "SR-BI Dependent Uptake", "value": 137, "unit": "%"},
      {"measurement": "Basal Uptake", "value": "8 ± 1 (DiI in cells)/(Total DiI added) × 10^−3"}
    ]},
    {"substance": "DV{Aib}QKFLELFNQLLEKWKQV (DV[Aib]QKFLELFNQLLEKWKQV) [SEQ ID NO: 4, amphiphilic peptide used to form PALM]", "values": [
      {"measurement": "Induced Uptake", "value": "10 ± 1 (DiI in cells)/(Total DiI added) × 10^−3"},
      {"measurement": "SR-BI Dependent Uptake", "value": 66, "unit": "%"},
      {"measurement": "Basal Uptake", "value": "6 ± 1 (DiI in cells)/(Total DiI added) × 10^−3"}
    ]}
  ]
}
